The results in this text go back to patent US20250230224A1 (University of California, published 2025).

The experiment has as its target T1, BoNT/F1 (UniProt A7GBG3 1-1278).
T1 sequence: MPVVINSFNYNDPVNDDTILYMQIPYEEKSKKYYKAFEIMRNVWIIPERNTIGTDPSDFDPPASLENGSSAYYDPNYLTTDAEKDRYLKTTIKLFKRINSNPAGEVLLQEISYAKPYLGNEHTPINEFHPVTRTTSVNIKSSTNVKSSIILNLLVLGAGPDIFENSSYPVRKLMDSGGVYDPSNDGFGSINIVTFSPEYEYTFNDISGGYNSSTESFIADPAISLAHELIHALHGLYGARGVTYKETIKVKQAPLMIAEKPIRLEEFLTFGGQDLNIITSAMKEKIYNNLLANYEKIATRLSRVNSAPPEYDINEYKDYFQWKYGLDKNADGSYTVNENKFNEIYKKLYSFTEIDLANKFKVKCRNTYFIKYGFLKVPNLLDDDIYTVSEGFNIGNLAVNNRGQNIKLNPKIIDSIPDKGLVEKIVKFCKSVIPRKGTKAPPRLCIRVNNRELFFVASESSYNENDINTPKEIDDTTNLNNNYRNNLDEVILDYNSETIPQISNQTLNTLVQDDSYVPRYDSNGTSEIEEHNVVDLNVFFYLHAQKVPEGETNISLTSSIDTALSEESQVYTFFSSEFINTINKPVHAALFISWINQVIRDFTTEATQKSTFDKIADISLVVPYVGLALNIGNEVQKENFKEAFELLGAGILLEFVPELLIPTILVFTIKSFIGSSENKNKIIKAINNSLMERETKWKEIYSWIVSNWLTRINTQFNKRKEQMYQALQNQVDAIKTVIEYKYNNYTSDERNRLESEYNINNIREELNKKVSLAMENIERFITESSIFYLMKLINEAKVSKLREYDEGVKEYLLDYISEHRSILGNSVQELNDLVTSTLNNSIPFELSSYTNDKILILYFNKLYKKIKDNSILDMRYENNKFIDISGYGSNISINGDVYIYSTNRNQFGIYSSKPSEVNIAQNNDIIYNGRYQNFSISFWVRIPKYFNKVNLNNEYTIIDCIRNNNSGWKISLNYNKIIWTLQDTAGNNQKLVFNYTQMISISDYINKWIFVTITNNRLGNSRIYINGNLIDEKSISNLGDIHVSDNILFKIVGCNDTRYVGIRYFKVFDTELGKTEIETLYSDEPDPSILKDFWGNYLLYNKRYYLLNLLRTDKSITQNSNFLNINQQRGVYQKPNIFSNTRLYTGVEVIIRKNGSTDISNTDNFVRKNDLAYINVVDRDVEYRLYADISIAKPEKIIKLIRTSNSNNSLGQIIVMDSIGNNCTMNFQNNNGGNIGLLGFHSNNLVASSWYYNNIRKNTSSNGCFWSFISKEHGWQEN
Put plainly: KinExA, IgG.

B1: 6F5.4 IgG (antibody, V domains shown)
VH: EVQLVPSGGNLVQPGGSLRLSCAATGPIDYHWMTWVRQAPGQGLEWVANINLDGTEKFYVDSVKGRFTVSRDNRKSSVFLQMNNLRVDDTAVYYCARLQWGERDGWLSPWGQGTLVTVSS
VL: DIVMTQSPPSLSASVGDRVRLTCRASQSIGRSLNWYQQKPGKAPKLLIYDASALHSGVPSRFSGSGSGTDFTLTISGLQPEDFATYYCQQTNDLPVTFGGGTKLEIKR
The molecule B1 yielded a Kd of 0.0149 nM.

B2: Hu6F11 IgG (antibody, V domains shown)
VH: EVQLVESGGGLVKPGGSLRLSCAASGFTFSNYGMSWVRQAPGKGLEWVASISSGGSYIYYPDSVKGRFTISRDNAKNSLYLQMNSLRAEDTAVYYCARRKGYDSLYWYFDVWGQGTLVTVSS
VL: DVVMTQSPSSLSAFVGDRVTITCRASQGIRSYLAWFQQKPGKAPKLLIYAASTLQSGVPSRFSGSGSGTEFTLTVSGLQPEDFATYYCQQYNSYPLTFGGGTRLEIKR
Regarding B2, binding was characterised by a dissociation constant (Kd) of 0.00071 nM.

B3: Hu6F13.4 IgG (antibody, V domains shown)
VH: QVQLVQSGAEVKKPGASVKVSCKASGYSFTSYWMHWVRQAPGQGLEWIGFINPINGGIIYNEKFRFRATLTVDTSISTAYMELSRLRSDDTAVYYCARAGYYGSSRHFDVWGQGTLLTVSS
VL: ETTLTQSPSSLSASVGDRVTITCRASQGIRNYLAWYQQKPGKAPKLLIYDASNLETGVPSRFSGSGSGTDFTFTISSLQPEDFATYYCLQTSSTPWTFGQGTKVDIKR
B3 registered a Kd of 0.173 nM.

A word on the Kd: it is a measure of binding affinity in units of concentration.
